The results in this text go back to patent publication US20220363757A1 (SYMPHOGEN A S, published 2022).

Assay [1] deals with T1, human LAG-3 domain 1-2 Fc fusion, chimeric construct #11 (mutated region AA 74-82) (human, UniProt P18627 23-266).
T1 construct: not shown: human IgG1 Fc, AA P101-K330
T1 chain: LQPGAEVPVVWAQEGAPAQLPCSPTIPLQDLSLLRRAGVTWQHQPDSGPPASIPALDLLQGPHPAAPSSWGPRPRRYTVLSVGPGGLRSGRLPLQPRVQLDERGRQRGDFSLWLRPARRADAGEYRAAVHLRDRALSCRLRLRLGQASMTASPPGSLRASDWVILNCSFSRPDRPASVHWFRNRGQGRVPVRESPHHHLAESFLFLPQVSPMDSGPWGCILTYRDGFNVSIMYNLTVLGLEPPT
The assay can be described thus: SPR, Fab over captured mutant LAG-3-Fc. (Surface plasmon resonance follows binding to a sensor surface in real time, without labels.)

The target of assay [2] is T2, human LAG-3 domain 1-2 Fc fusion, chimeric construct #7 (mutated region AA 53-60) (human, UniProt P18627 23-266).
T2 construct: not shown: human IgG1 Fc, AA P101-K330
T2 chain: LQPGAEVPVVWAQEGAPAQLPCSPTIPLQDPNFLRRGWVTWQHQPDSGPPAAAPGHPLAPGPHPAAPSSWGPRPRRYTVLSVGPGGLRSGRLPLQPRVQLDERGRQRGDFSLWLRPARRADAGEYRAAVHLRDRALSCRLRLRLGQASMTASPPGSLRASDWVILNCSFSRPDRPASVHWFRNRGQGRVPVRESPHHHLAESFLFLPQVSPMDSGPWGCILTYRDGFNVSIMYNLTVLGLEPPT
Briefly: SPR, Fab over captured mutant LAG-3-Fc.

Assay [3] concerns the target T3, human LAG-3 domain 1-2 Fc fusion, chimeric construct #26 (mutated region AA 157-161) (human, UniProt P18627 23-266).
T3 construct: not shown: human IgG1 Fc, AA P101-K330
T3 chain: T2 chain with P31L, N32S, F33L, G37A, W38G, A135D, L136F, R139S
The assay can be described thus: SPR, Fab over captured mutant LAG-3-Fc.

In assay [4] the target is T4, human LAG-3 domain 1-2 Fc fusion, chimeric construct #19 (mutated region AA 118-127) (human, UniProt P18627 23-266).
T4 construct: not shown: human IgG1 Fc, AA P101-K330
T4 chain: T2 chain with P31L, N32S, F33L, G37A, W38G, P96S, R97H, D101E, E102K, R105P
Briefly: SPR, Fab over captured mutant LAG-3-Fc.

Assay [5] concerns the target T5, human LAG-3 domain 1-2 Fc fusion, chimeric construct #22 (mutated region AA 140-142) (human, UniProt P18627 23-266).
T5 construct: not shown: human IgG1 Fc, AA P101-K330
T5 chain: T2 chain with P31L, N32S, F33L, G37A, W38G, R118T, A120K
Briefly: SPR, Fab over captured mutant LAG-3-Fc.

For assay [6], the target named is T6, human LAG-3 domain 1-2 Fc fusion, chimeric construct #3 (mutated region AA 40-41) (human, UniProt P18627 23-266).
T6 construct: not shown: human IgG1 Fc, AA P101-K330
T6 chain: T2 chain with A18V, Q19H, P31L, N32S, F33L, G37A, W38G
Briefly: SPR, Fab over captured mutant LAG-3-Fc.

The target in assay [7] is T7, human LAG-3 domain 1-2 Fc fusion, point mutation #6 T47A (human, UniProt P18627 23-266).
T7 construct: not shown: human IgG1 Fc, AA P101-K330
T7 sequence: T2 chain with T25A, P31L, N32S, F33L, G37A, W38G
The assay can be described thus: SPR, Fab over captured mutant LAG-3-Fc.

Another assay concerns the target T8, mouse LAG-3 ECD (mouse, UniProt Q61790 24-442).
T8 sequence: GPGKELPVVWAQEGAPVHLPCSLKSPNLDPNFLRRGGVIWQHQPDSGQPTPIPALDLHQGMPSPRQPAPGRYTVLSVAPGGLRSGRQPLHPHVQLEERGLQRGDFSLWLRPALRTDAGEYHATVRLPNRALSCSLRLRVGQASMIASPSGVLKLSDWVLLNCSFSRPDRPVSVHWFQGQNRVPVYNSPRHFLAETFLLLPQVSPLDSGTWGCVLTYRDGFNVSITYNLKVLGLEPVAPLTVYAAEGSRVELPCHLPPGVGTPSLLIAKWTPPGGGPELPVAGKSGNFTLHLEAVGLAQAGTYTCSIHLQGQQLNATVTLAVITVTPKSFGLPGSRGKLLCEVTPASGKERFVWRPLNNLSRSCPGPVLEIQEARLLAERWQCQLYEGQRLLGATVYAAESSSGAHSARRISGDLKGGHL
The assay can be described thus: SPR, Fab over captured LAG-3 ECD.

Substitutions are numbered along the chain they refer to.

Procedure for mouse LAG-3 ECD: Antigens were purified using standard procedures and captured onto an G-a-hu-IgG Fc SensEye® (Ssens BV, The Netherlands) for 15 minutes using a Continuous Flow Microspotter (CFM, Wasatch Microfluidics, Salt Lake City, US). After spotting, the SensEye® was positioned in the IBIS MX96 biosensor and remaining capture sites blocked. […] Fab association was performed for 15 minutes and antigen dissociation was performed for 15 minutes. The recorded binding responses were fitted to a simple Langmuir 1:1 binding model with Scrubber 2 software for calculation of the on-rate (kon or ka), off-rate (koff or kd) and affinity (KL) constants.

B1: Fab fragment of antibody 15532 (Fab, V domains shown, not shown: a dimerising Fc or GST)
VH: QVQLQQWGAGLLRPSETLSLTCAVYGESFSGYYWNWIRQPPGKGLEWIGEINHSGSTNYNPSLKSRVTISVDTSKTQFSLKLSSVTAADTAVYYCARGWDLLDWNDYWNEYWGQGTLVTVSS
VL: EIVLTQSPATLSLSPGERATLSCRASQSVSSYLAWYQQKPGQAPRLLIYDASNRATGIPARFSGSGSGTDFTLTISSLEPEDFAVYYCQQRSNWPLTFGGGTKVEIKR
notes: monomeric Fab made by GingisKHAN digestion of the IgG1
Take B1: the “KD mutant/KD wild type” value was determined as 1.5 fold in assay [1]; 3.4 fold in assay [2]; 1.1 fold in assay [3]; 0.5 fold in assay [4]; 1.3 fold in assay [5]; 2.2 fold in assay [6]. In addition, the “KD mutant/KD wild type” value in assay [7] amounted to 1.5 fold. Further, in the assay with mouse LAG-3 ECD, the binding result is on record as “no binding (tested: 1000 nM)”.

B2: Fab fragment of antibody 15431 (Fab, V domains shown, not shown: a dimerising Fc or GST)
VH: QVQLQQSGPGLVKPSQTLSLTCAISGDSVSSNSAAWNWIRQSPSRGLEWLGRTYYRSKWYNDYAVSVKSRITINPDTSKNQFSLQLNSVTPEDTAVYYCARDDDWNDFDYWGQGTLVTVSS
VL: B1 VL
notes: as for B1
For the molecule B2, the “KD mutant/KD wild type” value in assay [1] is 0.4 fold; in assay [3], 0.6 fold; in assay [4], 0.5 fold; in assay [5] it was 0.6 fold; in assay [7], 0.9 fold. For the same molecule, the binding result in assay [2] is recorded as “no binding (tested: 300 nM)”; in assay [6], “no binding (tested: 300 nM)”; with mouse LAG-3 ECD it was “no binding (tested: 1000 nM)”.

B3: Fab fragment of antibody 15572 (Fab, V domains shown, not shown: a dimerising Fc or GST)
VH: QLQLQESGPGLVKPSETLSLTCTVSGDSISSSSYYWGWIRQPPGKGLEWIGSIFYSGNTYYNPSLKSRVTISVDTSKNQFSLKLSSVTAADTAVYYCAREDDFLTDYYGAFDIWGQGTMVTVSS
VL: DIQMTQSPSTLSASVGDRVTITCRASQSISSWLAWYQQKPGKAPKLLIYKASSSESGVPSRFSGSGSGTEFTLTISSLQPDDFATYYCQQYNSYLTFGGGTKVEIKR
notes: as for B1
As for B3, the figures for the “KD mutant/KD wild type” value in assay [1], in assay [5] and in assay [7] were 0.5 fold, 0.8 fold and 0.6 fold, respectively. Besides, the binding result is on record as “no binding (tested: 300 nM)” in assay [2]; “no binding (tested: 300 nM)” in assay [3]; “no binding (tested: 300 nM)” in assay [4]; “no binding (tested: 300 nM)” in assay [6]; “no binding (tested: 1000 nM)” in the assay with mouse LAG-3 ECD.

B4: Fab fragment of antibody 15011 (Fab, V domains shown, not shown: a dimerising Fc or GST)
VH: EVQLLESGGGLVQPGGSLRLSCAASGFDFRSYAMMWVRQAPGKGLEWVGGINGEVGGSNTYYAPAVKGRATISRDNSKNTLYLQMNSLRAEDTAVYYCVKGAGACGICNDDIDAWGQGTLVTVSS
VL: SYELTQDPAVSVALGQTVRITCSGAGSYAGSYYYGWHQQKPGQAPVTVIYDNDKRPSNIPDRFSGSSSGNTASLTITGAQAEDEADYYCGSTNDNDDGGLFGSGTKVTVLG
notes: as for B1
On to B4, for which the “KD mutant/KD wild type” value in assay [1] is 0.6 fold; in assay [2] it was 0.5 fold; in assay [3] it was 0.7 fold; in assay [4], 0.6 fold; in assay [5], 0.5 fold; in assay [6], 0.5 fold. Besides, in assay [7], the “KD mutant/KD wild type” value is 0.9 fold. Besides, the Kd with mouse LAG-3 ECD stood at 33 nM. This molecule showed a koff in the assay with mouse LAG-3 ECD of 0.0023 s⁻¹. For the same molecule, in the assay with mouse LAG-3 ECD, the kon is 72000 M⁻¹ s⁻¹.

Broadly, the Kd is the concentration at which binding is half-saturated. A higher Kd goes with lower affinity. As a reminder, the koff is a measure of how fast the partners let go of each other. A low value points to a long-lived complex. A word on the kon: it is the second-order rate constant of association. Read a high kon as faster complex formation.
